Article PMC5701133 (Scientific Reports, 2017)

Target: T1, BRD4 ET domain (residues M610-R676) (human, UniProt O60885 610-676, uniformly 15N-labelled for the NMR titrations)
T1 construct: human BRD4, extraterminal (ET) domain, residues 610-676; also called extraterminal (ET) domain of BRD4; source: E. coli BL21-CodonPlus (pRIL), purified (HiTrap IMAC, Superdex)
Assay: ITC; MicroCal auto-ITC200, 20 °C, PBS pH 7.4 with 0.5 mM dithiothreitol; protein (0.5 mM) in the cell, peptide (7.5 mM) in the syringe; one set of sites model
Details: both partners purified

Kd: 675 ± 66 µM
B1: JMJD6 peptide W85A (peptide, UniProt Q6NYC1 84-96, looked up)
peptide: KATLERLKRKYRN
notes: JMJD6 residues 84-96 with W85A; also called W85A peptide
